Experimental findings from patent US20100280095A1 (RIKEN, published 2010) are described below.

The experiment addresses T1, endogenous Smad4 of 293T cells (UniProt Q13485 1-552).
T1 sequence (looked up): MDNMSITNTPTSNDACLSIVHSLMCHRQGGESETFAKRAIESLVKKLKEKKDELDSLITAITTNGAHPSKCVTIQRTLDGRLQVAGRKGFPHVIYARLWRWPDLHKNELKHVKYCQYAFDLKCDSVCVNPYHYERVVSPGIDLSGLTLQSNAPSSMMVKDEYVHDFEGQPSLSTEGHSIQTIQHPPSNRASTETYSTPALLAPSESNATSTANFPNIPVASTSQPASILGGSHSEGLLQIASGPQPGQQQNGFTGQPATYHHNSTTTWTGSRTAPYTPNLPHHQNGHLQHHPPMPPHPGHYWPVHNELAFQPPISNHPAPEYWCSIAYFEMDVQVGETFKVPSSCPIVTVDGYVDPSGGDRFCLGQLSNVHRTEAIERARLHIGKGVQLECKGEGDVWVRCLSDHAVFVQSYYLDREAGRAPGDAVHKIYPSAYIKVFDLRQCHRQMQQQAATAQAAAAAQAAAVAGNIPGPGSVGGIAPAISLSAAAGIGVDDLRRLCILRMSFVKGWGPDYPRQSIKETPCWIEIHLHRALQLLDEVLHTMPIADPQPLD
As to the kind of experiment: co-immunoprecipitation: anti-c-Myc IP of 293T whole cell extract, immunoblot with anti-Smad4. From the text:
(a) An interaction between c-Myc-tagged PDLIM2 and an endogenous Smad transcription factors; 293T cells were transfected with or without a c-Myc-tagged PDLIM2 expression plasmid (c-Myc PDLIM2) and treated to obtain whole cell extracts, which were immunoprecipitated (IP) with anti-c-Myc antibody, and immunoblotted (IB) with anti-Smad2, 3 or 4 antibody. (b) Luciferase activity in mouse embryonic fibroblasts; with or without a plasmid that encodes PDLIM2, the cells were transfected with a plasmid that encodes a TARE luciferase reporter (pTARE-Luc), after which the cells were stimulated with human TGFβ (10 ng/ml) for 6 hours and assayed.
All lysis buffers used for immunoblot analysis contained a proteinase inhibitor cocktail (Roche). Cytoplasmic and nuclear extracts were prepared as follows. Cells were lysed on ice for 10 min with hypotonic buffer (20 mM HEPES pH 8.0, 10 mM KCl, 1 mM MgCl₂, 0.1% Triton X-100, 20% glycerol). After centrifugation (5,000 rpm, 1 min), supernatants were collected and used as cytoplasmic fractions. The pellets were next lysed on ice for 20 min after brief vortexing with hypertonic buffer (20 mM HEPES pH 8.0, 1 mM EDTA, 20% glycerol, 0.1% Triton X-100, 400 mM NaCl). After centrifugation (15,000 rpm, 5 min), supernatants were collected and used as nuclear fractions. […]
A general note: Immunoblotting shows a protein as a band on a membrane.

B1: c-Myc-tagged PDLIM2 (murine Pdlim2 coding region in pCMV-Myc) (enzyme)
chain: MALTVDVAGPAPWGFRISGGRDFHTPIIVTKVTERGKAEAADLRPGDIIVAINGQSAENMLHAEAQSKIRQSASPLRLQLDRSQTASPGQTNGEGSLEVLATRFQGSLRTHRDSQSSQRSACFSPVSLSPRPCSPFSTPPPTSPVALSKEDMIGCSFQSLTHSPGLAAAHHLTYPGHPTSQQAGHSSPSDSAVRVLLHSPGRPSSPRFSSLDLEEDSEVFKMLQENRQGRAAPRQSSSFRLLQEALEAEERGGTPAFVPSSLSSQASLPTSRALATPPKLHTCEKCSVNISNQAVRIQEGRYRHPGCYTCADCGLNLKMRGHFWVGNELYCEKHARQRYSMPGTLNSRA
notes: Expressed in 293T cells and tested in whole cell extracts; also called c-Myc PDLIM2; PDZ and LIM domain protein-2; not shown: c-Myc tag from vector pCMV-Myc (Clontech)
With B1, the binding result is on record as “no binding”.
